Laboratory results as given in patent US20120052075A1 (H LUNDBECK A S, published 2012).
Each block holds one molecule with its values, some of them ahead of it.

Key:
[1] = target: soluble SorCS2 (extracellular domain of SorCS2), immobilized on the Biacore chip (Homo sapiens in the sequence list; not stated for the assay) (UniProt Q96PQ0); experiment: SPR (BIAcore), soluble SorCS2 immobilized, propeptide at 20 nM and 50 nM
[2] = target: T1, soluble SorCS2 (extracellular domain of SorCS2), immobilized on the Biacore chip (Homo sapiens in the sequence list; not …, UniProt Q96PQ0 51-1078); experiment: SPR (BIAcore), soluble SorCS2 immobilized, p75 ECD at 1 uM
T1 construct: also called immobilized soluble SorCS2
Method: FIG. 6: Physical interaction between SorCS2 and p75^NTR. A, HEK293 cells stably transfected with SorCS2 and p75^NTR encoding vectors were crosslinked with DSP (Pierce) and subsequently lysed. The cell lysate was incubated with antibody against SorCS2 bound to Gammabind beads (GE Healthcare). The precitated complexes were eluted from the washed beads with SDS loading buffer. […] The presence of p75^NTR and IgG heavy is indicated. HEK293 cells stably transfected with a p75^NTR encoding plasmid alone were used as negative control. B, surface plasmon resonance experiment (BIAcore) showing the direct interaction of soluble full-length extracellular domain of p75^NTR (p75 ECD) with immobilized soluble SorCS2. The p75 ECD concentration used was 1 μM.
HEK293 cells stably transfected with plasmids encoding SorCS2 and p75^NTR were crosslinked with DSP (Pierce) and subsequently lysed. The cell lysate was incubated with antibody against SorCS2 bound to Gammabind beads (GE Healthcare). Precipitated complexes were eluted from the washed beads with SDS loading buffer. […] A biosensor chip from Biacore (CM5, cat.no. BR-1000-14) was activated using the NHS/EDC method as described by the supplier followed by coating with SorCS2 (FIG. 6B).

[3] = target: T1, soluble SorCS2 (extracellular domain of …); experiment: SPR (BIAcore), soluble SorCS2 immobilized, BDNF at 10 nM and 20 nM

T1 sequence (Q96PQ0 51-1078 S716P limits assumed): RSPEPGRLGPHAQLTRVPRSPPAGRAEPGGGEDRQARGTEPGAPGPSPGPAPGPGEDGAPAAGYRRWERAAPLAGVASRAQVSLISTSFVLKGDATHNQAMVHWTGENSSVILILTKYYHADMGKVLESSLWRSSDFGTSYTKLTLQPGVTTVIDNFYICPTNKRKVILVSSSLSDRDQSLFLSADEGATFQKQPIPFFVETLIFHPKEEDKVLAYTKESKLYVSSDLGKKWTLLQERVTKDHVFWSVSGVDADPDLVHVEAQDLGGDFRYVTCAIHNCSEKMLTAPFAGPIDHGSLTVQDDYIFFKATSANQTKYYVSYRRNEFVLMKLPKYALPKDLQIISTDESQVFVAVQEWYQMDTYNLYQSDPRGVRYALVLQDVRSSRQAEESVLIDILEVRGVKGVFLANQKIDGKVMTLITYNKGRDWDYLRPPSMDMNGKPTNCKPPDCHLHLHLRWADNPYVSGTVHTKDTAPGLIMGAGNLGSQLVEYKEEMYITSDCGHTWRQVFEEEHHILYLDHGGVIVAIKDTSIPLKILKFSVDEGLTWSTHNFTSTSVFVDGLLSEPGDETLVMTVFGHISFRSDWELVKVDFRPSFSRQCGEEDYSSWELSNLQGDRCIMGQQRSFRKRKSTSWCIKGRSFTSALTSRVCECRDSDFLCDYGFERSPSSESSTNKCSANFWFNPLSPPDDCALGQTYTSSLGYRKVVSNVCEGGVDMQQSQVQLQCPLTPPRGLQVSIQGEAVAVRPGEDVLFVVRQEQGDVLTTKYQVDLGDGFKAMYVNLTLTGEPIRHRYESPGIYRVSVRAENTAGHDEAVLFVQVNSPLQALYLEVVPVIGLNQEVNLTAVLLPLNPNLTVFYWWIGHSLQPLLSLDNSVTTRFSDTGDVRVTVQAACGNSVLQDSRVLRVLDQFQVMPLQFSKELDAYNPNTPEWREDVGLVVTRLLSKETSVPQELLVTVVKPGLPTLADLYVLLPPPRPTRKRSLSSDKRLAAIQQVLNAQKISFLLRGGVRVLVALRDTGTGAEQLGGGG
soluble SorCS2 (extracellular domain of SorCS2), immobilized on the Biacore chip (Homo sapiens in the sequence list; not stated for the assay), sequence (Q96PQ0 51-1078 S716P limits assumed): as above

Kd [1]: 15 nM
Molecule: BDNF propeptide (from UniProt P23560 19-128) (ligand)

Kd [2]: ~10 nM
B1: soluble full-length extracellular domain of p75^NTR (receptor)
chain: KEACPTGLYTHSGECCKACNLGEGVAQPCGANQTVCEPCLDSVTFSDVVSATEPCKPCTECVGLQSMSAPCVEADDAVCRCAYGYYQDETTGRCEACRVCEAGSGLVFSCQDKQNTVCEECPDGTYSDEANHVDPCLPCTVCEDTERQLRECTRWADAECEEIPGRWITRSTPPEGSDSTAPSTQEPEAPPEQDLIASTVAGVVTTVMGSSQPVVTRGTTDN
notes: Whole entry named; also called p75 ECD

Kd [3]: 5 nM
B2: mature BDNF (ligand)
chain: HSDPARRGELSVCDSISEWVTAADKKTAVDMSGGTVTVLEKVPVSKGQLKQYFYETKCNPMGYTKEGCRGIDKRHWNSQCRTTQSYVRALTMDSKKRIGWRFIRIDTSCVCTLTIKRGR
